Results from patent US20050244894A1.

Target: procaspase-3 (endogenous, in cytosolic extract of 293T cells) (human) (UniProt P42574)
Test: cell-based or functional assay

Sequence of procaspase-3 (endogenous, in cytosolic extract of 293T cells) (human) (P42574 whole entry): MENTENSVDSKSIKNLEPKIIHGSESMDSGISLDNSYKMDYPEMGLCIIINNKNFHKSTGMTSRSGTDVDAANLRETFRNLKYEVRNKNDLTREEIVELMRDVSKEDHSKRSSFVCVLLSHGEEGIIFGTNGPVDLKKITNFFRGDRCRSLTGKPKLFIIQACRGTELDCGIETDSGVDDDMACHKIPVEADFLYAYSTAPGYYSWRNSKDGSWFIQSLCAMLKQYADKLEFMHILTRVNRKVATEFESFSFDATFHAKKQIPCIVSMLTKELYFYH

DEVDase activity of cytosolic extract of NK1R-transfected 293T cells: 7 fold
Substance: granzyme B (enzyme)
